The results in this text go back to patent US20210403593A1 (TIZONA THERAPEUTICS, published 2021).

Numbering of substitutions follows the chain as printed.

For one assay, the target named is T1, Chimera #4 (Homo sapiens (Human), UniProt P49961 1-510).
T1 construct: Expressed on CHO cells
T1 chain: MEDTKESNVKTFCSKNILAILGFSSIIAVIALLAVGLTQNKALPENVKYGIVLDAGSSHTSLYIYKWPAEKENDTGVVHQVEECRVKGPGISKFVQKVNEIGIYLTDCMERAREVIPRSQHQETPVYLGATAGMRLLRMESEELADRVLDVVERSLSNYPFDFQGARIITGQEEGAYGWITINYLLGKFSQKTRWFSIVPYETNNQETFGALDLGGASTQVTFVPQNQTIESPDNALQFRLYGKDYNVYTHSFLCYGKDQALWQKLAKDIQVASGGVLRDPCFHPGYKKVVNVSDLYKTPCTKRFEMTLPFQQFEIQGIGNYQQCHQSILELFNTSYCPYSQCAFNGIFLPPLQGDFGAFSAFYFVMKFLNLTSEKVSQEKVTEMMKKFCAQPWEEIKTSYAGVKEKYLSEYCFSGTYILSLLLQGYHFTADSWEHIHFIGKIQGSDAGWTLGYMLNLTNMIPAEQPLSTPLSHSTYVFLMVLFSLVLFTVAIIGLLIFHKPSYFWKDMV
Briefly: FACS on CHO cells, 15 ug/ml; human M1-S274 + mouse GGV + human L278-V510.

A further assay deals with T2, Chimera #9 (Homo sapiens (Human), UniProt P49961 1-510).
T2 construct: Expressed on CHO cells
T2 chain: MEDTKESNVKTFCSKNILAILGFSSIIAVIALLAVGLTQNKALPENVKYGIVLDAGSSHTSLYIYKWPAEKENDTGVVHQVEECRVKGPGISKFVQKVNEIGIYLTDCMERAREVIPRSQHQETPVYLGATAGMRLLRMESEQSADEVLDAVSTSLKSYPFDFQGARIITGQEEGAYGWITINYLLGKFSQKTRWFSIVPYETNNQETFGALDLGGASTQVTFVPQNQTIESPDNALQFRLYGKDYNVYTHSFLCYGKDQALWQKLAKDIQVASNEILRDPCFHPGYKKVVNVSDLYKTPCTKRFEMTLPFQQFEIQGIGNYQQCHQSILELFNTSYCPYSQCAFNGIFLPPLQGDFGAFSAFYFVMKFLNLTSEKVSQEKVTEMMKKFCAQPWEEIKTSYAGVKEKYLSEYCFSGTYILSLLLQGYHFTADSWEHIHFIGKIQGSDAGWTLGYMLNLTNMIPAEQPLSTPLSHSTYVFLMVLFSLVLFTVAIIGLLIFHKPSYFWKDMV
The experiment in a line: FACS on CHO cells; Chimera 2 with human D150 ([..]).

Another assay addresses T3, Chimera #14 (Homo sapiens (Human), UniProt P49961 1-510).
T3 construct: Expressed on CHO cells
T3 sequence: T1 chain with E153S, R154T, G275N, G276E, V277I
The experiment in a line: FACS on CHO cells; human CD39 with mouse S153 and T154.

For the next assay, the target named is T4, Chimera #10 (Homo sapiens (Human), UniProt P49961 1-510).
T4 construct: Expressed on CHO cells
T4 chain: T2 chain with D150A, S153E
Briefly: FACS on CHO cells; Chimera 2 with human E153 ([..]).

In another assay the target is T5, human CD39 (cellular) (human, UniProt P49961 1-510).
T5 construct: Same protein on engineered CHO cells and on cells that express it endogenously; also called hCD39; cellular CD39
T5 sequence: T1 chain with G275N, G276E, V277I
Briefly: flow cytometry, 100 nM IgG, MFI on CHO-hCD39 / MFI on parental CHO.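 Further: cells exposed to IgG for 30 min on ice in PBS, bound antibody then revealed with a fluorescent goat anti-human IgG secondary (20 min, on ice).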 On the technique in general: A flow cytometer gives signals particle by particle.

Method for Chimera #10: (§1) The chimeras were expressed in CHO cells and the ability of anti-human CD39 antibodies to bind the chimeras tested via FACS. In brief, cells were washed and blocked in FACS buffer (PBS/2% FBS) for 30 min on ice. […] After 2 washes, cells were resuspended in FACS buffer and analyzed on BD Fortessa. Data was processed with FlowJo.
Method for Chimera #14: (§2) The chimeras were expressed in CHO cells and the ability of anti-human CD39 antibodies to bind the chimeras tested via FACS. In brief, cells were washed and blocked in FACS buffer (PBS/2% FBS) for 30 min on ice. […] After 2 washes, cells were resuspended in FACS buffer and analyzed on BD Fortessa. Data was processed with FlowJo. Positive binding was scored as “yes” and lack of binding was scored as “NO” and examples of FACS plots used to generate this table are in FIGS. 14.F and 14.G.
Method for Chimera #4: as §1
Method for Chimera #9: as §2
Method for human CD39 (cellular): 100 nanomolar IgGs (each antibody is indicated as a unique clone number in the FIG.) were incubated at 25° C. for 30 minutes on ice in phosphate buffered saline (PBS) with parental CHO cells or CHO cells engineered to express either human or cynomolgus macaque (Macaca fascicularis) CD39 (CHO CD39 cells). Cells were then washed with ice cold PBS and incubated with a fluorescently labeled goat-anti-human IgG for 20 minutes on ice. Cells were washed and resuspended in ice cold PBS prior to analysis by flow cytometry.

B1: 31901 (antibody, human IgG4 S228P, kappa, V domains shown)
VH: QVQLVQSGAEVKKPGSSVKVSCKASGGTFSSLPISWVRQAPGQGLEWMGGIGFGTANYAQKFQGRVTITADESTSTAYMELSSLRSEDTAVYYCARGGAKYAGRYGMDVWGQGTTVTVSS
VL: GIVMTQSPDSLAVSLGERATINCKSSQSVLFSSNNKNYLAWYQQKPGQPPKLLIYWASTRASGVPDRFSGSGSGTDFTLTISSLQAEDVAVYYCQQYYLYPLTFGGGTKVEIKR
B1: the binding result was “binds” in the assay with Chimera #4, “no binding (tested: 15 ug/ml)” with Chimera #9, “no binding (tested: 15 ug/ml)” in the assay with Chimera #14 and “no binding (tested: 15 ug/ml)” with Chimera #10. The “Cell Binding (FOB)” value with human CD39 (cellular) worked out at 1110 fold over background.

B2: 31905 (antibody, human IgG4 S228P, kappa, V domains shown)
VH: B1 VH with S30P, L32N, P33A, G103R, R104T
VL: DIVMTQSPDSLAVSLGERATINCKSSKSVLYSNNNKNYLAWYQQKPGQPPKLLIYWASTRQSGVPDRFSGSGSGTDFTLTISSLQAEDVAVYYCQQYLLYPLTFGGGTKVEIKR
Regarding B2, the binding result is “binds” with Chimera #4, “no binding (tested: 15 ug/ml)” with Chimera #9, “no binding (tested: 15 ug/ml)” in the assay with Chimera #14 and “no binding (tested: 15 ug/ml)” with Chimera #10. In addition, in the assay with human CD39 (cellular), the “Cell Binding (FOB)” value turned out to be 1080 fold over background.
